{"source": "patent US20250283886", "key": {"[1]": {"tested_on": "[…]{LYS(N3)} peptide-linker conjugate, PEG4 linker (Table 6 entry 11)"}, "[2]": {"tested_on": "[…]{LYS(N3)} peptide-linker conjugate, oligo linker (Table 6 entry 10)"}, "[3]": {"tested_on": "[…]{LYS(N3)} peptide-linker conjugate, oligo linker (Table 6 entry 8)"}, "[4]": {"tested_on": "[…]{LYS(N3)} peptide-linker conjugate, oligo linker (Table 6 entry 9)"}}}
{"substance": "Y. pestis proline iminopeptidase", "values": [{"measurement": "Cleaved by PIP", "setting": "[1]", "result": "Yes"}, {"measurement": "Cleaved by PIP", "setting": "[2]", "result": "No"}, {"measurement": "Cleaved by PIP", "setting": "[3]", "result": "Yes"}, {"measurement": "Cleaved by PIP", "setting": "[4]", "result": "Yes"}]}
